Experiment [1] deals with T1, human recombinant cyclophilin A (Sigma) (human, UniProt P62937 1-165).
T1 construct: Bought protein
As to the kind of experiment: chymotrypsin-coupled spectrophotometric PPIase assay, tight binding inhibitor fit.

Experiment [2] addresses cyclophilin (Sigma). As to the kind of experiment: cell-based or functional assay.

The record followed here is patent USRE43371 (dated 2012).

Square brackets hold non-standard residues; d marks the D form. MeBmt = C/C=C/C[C@@H](C)[C@@H](O)[C@H](NC)C(=O)O; NMeI = CC[C@H](C)[C@H](NC)C(=O)O; NMeL = CN[C@@H](CC(C)C)C(=O)O; NMeV = CN[C@H](C(=O)O)C(C)C; Abu = CC[C@H](N)C(=O)O; Sar = CNCC(=O)O

T1 sequence (P62937 whole entry): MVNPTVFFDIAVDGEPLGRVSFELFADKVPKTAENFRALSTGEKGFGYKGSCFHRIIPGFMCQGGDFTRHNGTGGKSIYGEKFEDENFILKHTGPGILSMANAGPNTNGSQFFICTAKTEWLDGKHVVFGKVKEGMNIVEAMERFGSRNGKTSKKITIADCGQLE
Sequence of cyclophilin (Sigma) (P62937 whole entry): as above

For cyclo([MeBmt][Abu][Sar][NMeI]V[NMeL]A[dA][NMeL][NMeL][NMeV]) (also called [Melle]^4-CsA; NIM811) [[MeIle]^4-CsA], the Ki – broadly, a dissociation constant, usually derived from enzyme kinetics or from competition with a known ligand – in experiment [1] was 2.11 nM. The “PPIase (IC50 of inhibition of cyclophilin PPIase activity, relative to cyclosporin A = 1.0)” value in experiment [2] is 0.5 relative to CsA.
